Measured values reported in publication PMC3405243, “Segmental isotopic labeling of a 140 kDa dimeric multi-domain protein CheA from Escherichia coli by expressed protein ligation and protein trans-splicing” (Journal of Biomolecular Nmr, 2012).

T1: ligated CheA P1(Q153)/(S154C)P2–5 produced by expressed protein ligation (EPL) (E. coli, UniProt P07363 1-654, S154C)
T1 construct: CheA, E. coli, amplified from genomic DNA of strain BL21; Inteins and CBD of both fragments were removed before ligation; also called ligation product of P1/P2–5; source: fragments expressed in E. coli BL21-CodonPlus (DE3)-RP, purified, ligated in vitro (EPL)
T1 sequence (looked up): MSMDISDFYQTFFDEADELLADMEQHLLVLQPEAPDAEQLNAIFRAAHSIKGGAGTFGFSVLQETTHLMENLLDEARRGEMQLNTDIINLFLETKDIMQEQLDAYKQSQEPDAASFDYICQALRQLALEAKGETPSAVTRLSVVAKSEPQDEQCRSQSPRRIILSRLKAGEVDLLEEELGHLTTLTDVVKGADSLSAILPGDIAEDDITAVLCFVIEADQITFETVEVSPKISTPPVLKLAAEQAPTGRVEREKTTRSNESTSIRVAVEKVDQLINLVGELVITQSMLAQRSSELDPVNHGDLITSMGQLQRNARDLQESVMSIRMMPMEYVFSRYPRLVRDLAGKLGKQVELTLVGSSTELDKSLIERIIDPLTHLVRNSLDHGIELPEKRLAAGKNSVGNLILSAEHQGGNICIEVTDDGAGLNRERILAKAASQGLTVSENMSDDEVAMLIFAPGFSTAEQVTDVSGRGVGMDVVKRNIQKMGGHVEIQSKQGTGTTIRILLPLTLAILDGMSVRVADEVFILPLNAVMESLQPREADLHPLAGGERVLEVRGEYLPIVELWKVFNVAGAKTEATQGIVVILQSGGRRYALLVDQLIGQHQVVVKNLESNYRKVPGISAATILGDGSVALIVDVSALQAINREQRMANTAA

B1: ligated CheA P1(Q153G)/(S154C)P2–5 produced by expressed protein ligation (EPL) (enzyme, E. coli, UniProt P07363 1-654, looked up)
chain: MSMDISDFYQTFFDEADELLADMEQHLLVLQPEAPDAEQLNAIFRAAHSIKGGAGTFGFSVLQETTHLMENLLDEARRGEMQLNTDIINLFLETKDIMQEQLDAYKQSQEPDAASFDYICQALRQLALEAKGETPSAVTRLSVVAKSEPQDEGCRSQSPRRIILSRLKAGEVDLLEEELGHLTTLTDVVKGADSLSAILPGDIAEDDITAVLCFVIEADQITFETVEVSPKISTPPVLKLAAEQAPTGRVEREKTTRSNESTSIRVAVEKVDQLINLVGELVITQSMLAQRSSELDPVNHGDLITSMGQLQRNARDLQESVMSIRMMPMEYVFSRYPRLVRDLAGKLGKQVELTLVGSSTELDKSLIERIIDPLTHLVRNSLDHGIELPEKRLAAGKNSVGNLILSAEHQGGNICIEVTDDGAGLNRERILAKAASQGLTVSENMSDDEVAMLIFAPGFSTAEQVTDVSGRGVGMDVVKRNIQKMGGHVEIQSKQGTGTTIRILLPLTLAILDGMSVRVADEVFILPLNAVMESLQPREADLHPLAGGERVLEVRGEYLPIVELWKVFNVAGAKTEATQGIVVILQSGGRRYALLVDQLIGQHQVVVKNLESNYRKVPGISAATILGDGSVALIVDVSALQAINREQRMANTAA
notes: CheA, E. coli, amplified from genomic DNA of strain BL21; P1 fragment was made as a C-terminal Mxe GyrA intein-CBD fusion and P2–5 as an N-terminal CBD-Ssp DnaB intein fusion (pTWIN1); both inteins were removed before ligation; NMR samples were [2H,15N]-labeled in P1; UniProt entry is of strain K-12; the DNA was from strain BL21; also called Q153G/S154C dimer; ligated product

Legend:
[1] = molecular target: B1; test: co-purification (SEC, then separation by anion exchange chromatography); EPL reaction mixture of purified fragments; Superdex 200, then ResourceQ in TEDG buffer with a 0–500 mM NaCl gradient; heterodimer separated from the ligated homodimer; details: both partners purified
[2] = molecular target: T1, ligated CheA P1(Q153)/(S154C)P2–5 …; test: as above; details: both partners purified
[3] = molecular target: the molecule itself; test: SEC; HiLoad 16/60 Superdex 200 prep grade, TEDG buffer (50 mM Tris pH 7.5, 0.5 mM EDTA, 2 mM DTT, 10% glycerol) with 150 mM NaCl; elution volume compared with immunoglobulin G (158 kDa)

binding result [1] | binding result [2] | Binder | stoichiometry N [3]
binds | binds | (S154C)P2–5 domains of CheA (domain or fragment, E. coli, UniProt P07363 154-654, looked up, CheA P2–5 domains, E. coli, amplified from genomic DNA of strain BL21, residues S154 to A654 with cysteine at the N-terminus; also called unreacted (S154C)P2–5; unreacted P2–5; source: E. coli BL21-CodonPlus (DE3)-RP, purified (chitin beads, intein cleavage); not shown: CBD-Ssp DnaB intein, N-terminal, cleaved) CRSQSPRRIILSRLKAGEVDLLEEELGHLTTLTDVVKGADSLSAILPGDIAEDDITAVLCFVIEADQITFETVEVSPKISTPPVLKLAAEQAPTGRVEREKTTRSNESTSIRVAVEKVDQLINLVGELVITQSMLAQRSSELDPVNHGDLITSMGQLQRNARDLQESVMSIRMMPMEYVFSRYPRLVRDLAGKLGKQVELTLVGSSTELDKSLIERIIDPLTHLVRNSLDHGIELPEKRLAAGKNSVGNLILSAEHQGGNICIEVTDDGAGLNRERILAKAASQGLTVSENMSDDEVAMLIFAPGFSTAEQVTDVSGRGVGMDVVKRNIQKMGGHVEIQSKQGTGTTIRILLPLTLAILDGMSVRVADEVFILPLNAVMESLQPREADLHPLAGGERVLEVRGEYLPIVELWKVFNVAGAKTEATQGIVVILQSGGRRYALLVDQLIGQHQVVVKNLESNYRKVPGISAATILGDGSVALIVDVSALQAINREQRMANTAA | 
 |  | B1 | 2
 |  | ligated CheA P12^(2)/^(5)P3–5 produced by protein trans-splicing (PTS) in vivo (enzyme, E. coli, CheA P12 domains, E. coli, amplified from genomic DNA of strain BL21, residues 1–238; stands instead of KLAAEQA of the P2-P3 linker; CheA P3–5 domains, E. coli, amplified from genomic DNA of strain BL21, residues 246–654; H6-Smt3 was removed with Ulp1; results and methods give a different order of SEC and tag removal, so its state at the SEC is open; P12 part [2H,15N]-labeled in the NMR sample; …) MSMDISDFYQTFFDEADELLADMEQHLLVLQPEAPDAEQLNAIFRAAHSIKGGAGTFGFSVLQETTHLMENLLDEARRGEMQLNTDIINLFLETKDIMQEQLDAYKQSQEPDAASFDYICQALRQLALEAKGETPSAVTRLSVVAKSEPQDEQSRSQSPRRIILSRLKAGEVDLLEEELGHLTTLTDVVKGADSLSAILPGDIAEDDITAVLCFVIEADQITFETVEVSPKISTPPVLGSCFNGTPTGRVEREKTTRSNESTSIRVAVEKVDQLINLVGELVITQSMLAQRSSELDPVNHGDLITSMGQLQRNARDLQESVMSIRMMPMEYVFSRYPRLVRDLAGKLGKQVELTLVGSSTELDKSLIERIIDPLTHLVRNSLDHGIELPEKRLAAGKNSVGNLILSAEHQGGNICIEVTDDGAGLNRERILAKAASQGLTVSENMSDDEVAMLIFAPGFSTAEQVTDVSGRGVGMDVVKRNIQKMGGHVEIQSKQGTGTTIRILLPLTLAILDGMSVRVADEVFILPLNAVMESLQPREADLHPLAGGERVLEVRGEYLPIVELWKVFNVAGAKTEATQGIVVILQSGGRRYALLVDQLIGQHQVVVKNLESNYRKVPGISAATILGDGSVALIVDVSALQAINREQRMANTAA | 2
